According to patent US20250076314A1 (NORDIC BIOSCIENCE A S, published 2025):
Where no end group is shown, it is not given here. The star is where a group is joined. Biotin = O=C1N[C@H]2[C@H](CS[C@H]2CCCCC(=O)*)N1

T1: Nonsense coating peptide LHDSNPYPRR-K-Biotin
T1 peptide: LHDSNPYPRRK(Biotin)

T2: Coating peptide PIQWNAPQPS-K-Biotin (human)
T2 construct: also called biotin-labelled peptide
T2 peptide: PIQWNAPQPSK(Biotin)

T3: Nonsense peptide LHDSNPYPRR
T3 construct: also called nonsense selection peptide; deselection peptide
T3 peptide: LHDSNPYPRR

T4: Truncated peptide IQWNAPQPS
T4 construct: also called deselection peptide
T4 peptide: IQWNAPQPS

T5: Elongated peptide HPIQWNAPQPS
T5 construct: also called deselection peptide
T5 peptide: HPIQWNAPQPS

B1: Selection peptide PIQWNAPQPS (peptide)
peptide: PIQWNAPQPS
notes: Synthetic peptide from Genscript
B2: FN-ANA monoclonal antibody (mAb raised against the FN-ANA neoepitope sequence …) (antibody, mouse IgG1, kappa, V domains shown)
VH: QVQLQQSGAELVRPGASVKLSCKALGYTLTDYEMHWVKQTPVHGLEWIGAIHPGRGAAAYNQKFKDKATLTADKSSSTAYMELSSLTSEDSAVYYCTRSEEYGNYEDAMDYWGQGTSVTVSS
VL: DVVMTQTPLSLPVSLGDQASISCRSSQSLVHSNGNTYLHWFLQKPGQSPKLLIYKVSNRFSGVPDRFSGSGSGTDFTLKISRVEAEDLGVYFCSQSTHVPYTFGGGTKLEIKR
modifications: antibody labeled with HRP (site not stated)
notes: Mouse IgG1/kappa from a hybridoma, purified and HRP-labelled for the assay; also called FN-ANA mAb; FN-ANA antibody

Columns and labels:
[1] = target: B2; assay: competitive chemiluminescent ELISA, ten independent runs: selection peptide competes with plate-bound coating peptide …-K-biotin for HRP-labelled mAb; 20 h at 4 C
Description: The final FN-ANA assay parameters were determined empirically by several optimizing experiments where various reagents, concentrations, incubation time and temperature were investigated in addition to testing reactivity to selection and deselection peptides (Table 1) and human sera. The final FN-ANA competitive ELISA procedure was conducted with chemiluminescence detection and determined as follows: 100 μL of 3 ng/ml coating peptide ([…]-K-biotin (SEQ ID NO: 5)) in coating buffer (50 mM tris-buffered saline (TBS) with 1% (w/v) bovine serum albumin, 0.1% (w/v) Tween-20, and 0.36% (v/v) Bronidox (BTB), 4 g/L NaCl, 0.20 g/L KCl, pH 8.0) was added to each well in a 96-well streptavidin-coated microtiter white plate (cat. No. 655995, Greiner Bio-one, Taufkirchen, Germany), whereafter it was incubated for 30 minutes at 20° C. with 300 RPM orbital shaking. After incubation, the plate was emptied and washed 5 times in washing buffer (consisting of 25 mM Tris, 3.0 g/L NaCl, 0.1% (w/v) Tween-20, pH 7.2). […] Following a washing step, 100 µL/well of chemiluminescence substrate was added, and the plate was incubated for a total of 3 minutes in darkness with 1 minute of 300 RPM orbital shaking before detection with luminescence on a SpectraMax i3x microplate reader (Molecular Devices, Sunnyvale CA, USA) at 1 second integration time at all wavelengths as microplate reader settings. […]

[2] = target: T1, Nonsense coating peptide …; assay: ELISA with the nonsense coating peptide on a streptavidin plate, colorimetric detection (OD 450 nm)
[3] = target: B1; assay: competitive ELISA, colorimetric detection
[4] = target: T2, Coating peptide PIQWNAPQPS-K-Biotin; assay: competitive ELISA, colorimetric detection
[5] = target: T3, Nonsense peptide LHDSNPYPRR; assay: competitive ELISA, colorimetric detection (OD 450 nm), two-fold diluted peptides
Description: (§1) No. 655995, Greiner Bio-one, Taufkirchen, Germany), whereafter it was incubated for 30 minutes at 20° C. with 300 RPM orbital shaking. After incubation, the plate was emptied and washed 5 times in washing buffer (consisting of 25 mM Tris, 3.0 g/L NaCl, 0.1% (w/v) Tween-20, pH 7.2). A 10-point calibration curve with 2-fold dilution was prepared from a start concentration of 200 ng/ml selection peptide ([…] (SEQ ID NO: 1)) in incubation buffer (50 mM TBS-BTB, 4.0 g/L NaCl, 0.20 g/L KCl, 5% Liquid II (cat. No. 11941836001, Roche), pH 8.0). 20 μL/well of standards, assay controls, and serum samples were added to appropriate wells in double determinations followed by the addition of 100 μL/well of 6 ng/ml of HRP-labelled mAb in incubation buffer, whereafter plates were incubated at 4° C. for 20 hours with 300 RPM orbital shaking. The following day, chemiluminescence substrate (cat. No. 11582950001, Roche Diagnostics) was prepared according to manufacturer's instructions and mixed by rotation in the dark for 20 minutes at room temperature prior to plate analysis. Following a washing step, 100 µL/well of chemiluminescence substrate was added, and the plate was incubated for a total of 3 minutes in darkness with 1 minute of 300 RPM orbital shaking before detection with luminescence on a SpectraMax i3x microplate reader (Molecular Devices, Sunnyvale CA, USA) at 1 second integration time at all wavelengths as microplate reader settings. […]
(§2) Antibody specificity was evaluated using the synthetic peptides and determined as a percentage of signal inhibition of two-fold diluted selection and deselection peptides (elongated, truncated, and nonsense) in addition to a non-sense coating (peptide details are listed in Table 1) using a colorimetric detection method with 96-well streptavidin-coated microtiter plate (cat. No. 11940279, Roche Diagnostics, Hvidovre, Denmark) and using the above procedure with the following exceptions: Instead of adding chemiluminescent substrate, the colorimetric substrate 3,3′,5,5′-tetramethylbenzidine One (cat. […]

[6] = target: T4, Truncated peptide IQWNAPQPS; assay: as above
Description: as §1, §2

[7] = target: T5, Elongated peptide HPIQWNAPQPS; assay: as above
Description: as §1, §2

| IC50 [1] [ng/mL] | binding result [2] | binding result [3] | binding result [4] | binding result [5] | binding result [6] | binding result [7] | Binder |
| --- | --- | --- | --- | --- | --- | --- | --- |
| 8.86 | – | – | – | – | – | – | B1 |
| – | no binding | binds | binds | no binding | no binding | no binding | B2 |
